Test system: MS2 coat protein
Experiment: apparent KD of MS2 coat protein; designed switch direction (-1 OFF switch, 1 ON switch): -1; higher = weaker reporter binding
In short: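 Three titration conditions were used: no input, 200 uM small-molecule ligand, and an oligonucleotide input. In each, SNAP-549-labelled MS2 coat protein was raised from 0.7 or 1.5 nM, doubling, to 3 µM over designed RNA switches transcribed on Illumina chips by stalled E. coli RNA polymerase. Curve fits of normalised cluster fluorescence gave values whose per-design median over clusters is the apparent KD.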

[1] = Eterna round: R95, input ligand: FMN 200 uM
[2] = Eterna round: R95, input ligand: microRNA oligo, concentration not stated
[3] = Eterna round: R95, input ligand: none
[4] = input ligand: microRNA oligo, concentration not stated

| Sequence | apparent KD of MS2 coat protein (input ligand: FMN 200 uM) [nM] | apparent KD of MS2 coat protein (input ligand: none) [nM] | apparent KD of MS2 coat protein [1] [nM] | apparent KD of MS2 coat protein [2] [nM] | apparent KD of MS2 coat protein [3] [nM] | apparent KD of MS2 coat protein [4] [nM] |
| --- | --- | --- | --- | --- | --- | --- |
| UUUAAUUGUGACAUGGGUGACAUGAGGAUCACCCAUGUCACAAGCUUUUUGCUCGUCUUAUAAUUAACCCAUGUCAC [Stov1/13-A1] (Eterna round: R97, puzzle: Sensor, turn-off variant 1) | 25.6 | 27.7 | – | – | – | – |
| UUUAAUUUUUUUUUUUUACAAGCUUUUUGCUCGUCUUAUACAUGAGGAUCACCCAUGUGGGUAGAAGAUAAAUUAUC [JMF 6] (puzzle: Sensor v3, turn-off variant 2) | – | – | 46.4 | 81.8 | 37.4 | – |
| UUUAAUUUUUUUUUUUUACAAGCUUUUUGCUCGUCUUAUACAUGAGGAUCACCCAUGUGGGUGAAGGAUAAAUUAUC [JMF 26] (puzzle: Sensor v3, turn-off variant 2) | – | – | 35.6 | 36.2 | 34.3 | – |
| UUUAAUUUUUUUUUUUUACAAGCUUUUUGCUCGUCUUAUACAUGAGGAUCACCCAUGUGGGUGAGAAGUAAAUUAUC [JMF 48] (puzzle: Sensor v3, turn-off variant 2) | – | – | 63.7 | 14.6 | 224 | – |
| UUUAAUUUUUUUUUUUUACAAGCUUUUUGCUCGUCUUAUACAUGAGGAUCACCCAUGUGGGUGGGAGAUAAAUUAUC [JMF 24] (puzzle: Sensor v3, turn-off variant 2) | – | – | 88.6 | 59.3 | 341 | – |
| UUUAGUAUCUAGGAUAUCUAGUACAUAGUAUCUAGAGAAGGAGAUACAUGAGGAUCACCCAUGUUCUGUGAUCU [Exclusion 6 - 2:b] (puzzle: Exclusion 6) | – | – | – | 118 | – | – |
| UUUAGUUCAGGAUAUGUAGAAAUUAACAUGAGGAUCACCCAUGUAGAUCCUGAAUUAACUACAGAAGGGAACAUUU [JL-ex5-4.43 Brourd mod] (Eterna round: R97, puzzle: Exclusion 5) | 51.3 | 15.7 | – | – | – | – |
| UUUAGUUCAGGAUAUGUAGAUUUUAACAUGAGGAUCACCCAUGUAGAUCCUGAAUUAACUACAGAAGGGAACAUUA [Exclusion 5: 2:d] (Eterna round: R96, puzzle: Exclusion 5) | 81.1 | 24.7 | – | – | – | 20.3 |
| UUUAGUUCAGGAUAUGUAGAUUUUAACAUGAGGAUCACCCAUGUAGAUCCUGAAUUAACUACAGAAGGGAACAUUA [Exclusion 5: 2:d] (puzzle: Exclusion 5) | – | – | – | 19.4 | – | – |
| UUUAGUUCAGGAUAUGUAGAUUUUAACAUGAGGAUCACCCAUGUAGAUCCUGAUCCUGCUACAGAAGGGAAGAUUU [Mat - Exclusion 5 - Eli Mod - D7] (Eterna round: R97, puzzle: Exclusion 5) | 22.3 | 23.9 | – | – | – | – |
| UUUAUAAUUUCAAUCUUCGCCAGCAAACUAACACUGGCCACAUGAGGAUCACCCAUGUUUUUUGUUCGUUUUAUUCU [Cesoorso] (puzzle: Sensor v3, turn-off variant 2) | – | – | 21.6 | 62.9 | 23.3 | – |
| UUUAUAUAGUAAGGAUAUGUAUUAUUUUUUACAACAGAAGGUACUGACAUGAGGAUCACCCAUGUUUUAGUGUGGGCAUGUAGU [JMF's solution 100] (Eterna round: R96, puzzle: Exclusion NG 1) | – | – | – | – | – | 217 |
| UUUCAACAUGAGGAUCACCCAUGUGAGGAUAUGAUGCAGCAGUGGUCUACGCUGUGCAUCAGAAGGCACAUGUG (puzzle: Exclusion 1) | – | – | – | 130 | – | – |
| UUUCAACGGUAGGAUAUCGAGACUACGACUAGCCGAGAAGGGCCGACAUGAGGAUCACCCAUGUGCCUCACCCG [Eternabot (L1) Solution 56] (Eterna round: R97, puzzle: Exclusion 6) | 22.9 | 23.9 | – | – | – | – |
| UUUCGGCGGACCGUGGCUUUUUGCUCGUCUUAUGCUACGACAUGAGGAUCACCCAUGUGGUGGUGGUCCGUUGUUGU [Grok-var2-11 mod JAL] (puzzle: Sensor v3, turn-off variant 2) | – | – | 59.7 | 10.4 | 39.7 | – |
| UUUCGUGUGCGGGCUUUUUACAUGAGGAUCACCCAUGUCCUCUGCUUGUCUUGUCUUGGGCUUUUUUUGGGUUCGGG [-19.4, -42 kcal, A 8%] (Eterna round: R97, puzzle: Sensor, turn-off variant 1) | 560 | 836 | – | – | – | – |
| UUUCUUAAGUGGUCGCUUCACAUGAGGAUCACCCAUGUCGCCUCUAUGGCAUUAAAUACGAGCUUUUUGCUUGAAUU [Eternabot (L1) Solution 14] (Eterna round: R97, puzzle: Sensor, turn-off variant 1) | 312 | 385 | – | – | – | – |
| UUUGAGUUAGGAUAUGCCAAGUUGCACAUGAGGAUCACCCAUGUGAGGUGCCUUACUUAAGCAGAAGGAACAAUAA [EX5 C.13] (Eterna round: R97, puzzle: Exclusion 5) | 22.1 | 19.8 | – | – | – | – |

Reference: the supplement of paper PMC9170038
